Source: patent US20210139548A1 (published 2021)
Blank lines part the entries; values can stand above or below the binder they belong to. *1 amine or outer side, *2 acyl side, *3 side chain or, on linkers, in order; H or OH if unused. Side-chain parts run from the residue outwards. The star is where a group is joined. C18 diacid = O=C(O)CCCCCCCCCCCCCCCCC(=O)*; γGlu = O=C(O)[C@H](CCC(=O)[*:2])N[*:1]; Isovaleryl = CC(C)CC(=O)*; AEEA = NCCOCCOCC(=O)O

Target: T1, human neuropeptide Y2 receptor (human, UniProt P49146 1-381)
T1 construct: whole, on cells; also called hNPY2 receptor; hNPY2-R
T1 sequence (looked up): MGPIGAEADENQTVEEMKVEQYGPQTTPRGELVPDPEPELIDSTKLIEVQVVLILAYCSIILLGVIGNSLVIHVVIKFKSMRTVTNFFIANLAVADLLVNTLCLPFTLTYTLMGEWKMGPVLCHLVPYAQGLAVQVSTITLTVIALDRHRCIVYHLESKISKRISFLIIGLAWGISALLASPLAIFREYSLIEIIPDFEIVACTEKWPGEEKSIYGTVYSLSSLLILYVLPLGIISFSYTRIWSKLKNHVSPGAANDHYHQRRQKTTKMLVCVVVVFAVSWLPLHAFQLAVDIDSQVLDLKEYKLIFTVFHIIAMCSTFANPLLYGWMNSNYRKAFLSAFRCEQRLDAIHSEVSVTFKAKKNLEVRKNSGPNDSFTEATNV
Test: radioligand competition (125I-PYY(1-36)), hNPY2R membranes
Protocol: The filtration RLB assay was carried out in 96-well plates in a final volume of 100 μl per well. Freeze-dried test peptides were dissolved in 100% dimethyl sulfoxide (DMSO) to stock solutions of 1 mM and serial dilutions were performed in assay buffer (50 mM HEPES, 5 mM MgCl₂, 1 mM CaCl₂, pH 7.4) containing 0.2% ovalbumin. […] Next, 80 μL membranes (HTS066M, ChemiSCREEN™ Human Neuropeptide Y2 Receptor Membrane Preparation, CHEMICON) were added to each well to give a final protein concentration of 0.5 μg/well. The plates were sealed and incubated at room temperature for 2 hours in a plate shaker set at 400 rpm. The incubation was stopped by vacuum filtration onto 0.5% poly-ethylene amine (PEI) presoaked GF/C filters using a 96-well FilterMate™ harvester (Perkin Elmer) followed by four washes with 300 μl/well ice-cold wash buffer (50 mM HEPES, 500 mM NaCl, pH7.4). Filter plates were then dried for 60 min at room temperature and the bottom of the plates was sealed with backing tape UniFilter-96. Finally, 50 μl/well scintillation counter cocktail (Microscint20, Packard) was added and the radioactivity was counted in the Packard TopCount NXT scintillation counter. IC₅₀ values (the half maximal inhibitory concentration of the agonist) were calculated by nonlinear regression analysis of sigmoidal dose-response curves.

B1: Compound 1 (peptide)
peptide: Isovaleryl-APEK([AEEA-AEEA-γGlu-C18 diacid])PEEDAQPEELQEYYVSLRHYYNWLTRQRY-NH2
SMILES: CC(C)CC(=O)N[C@@H](C)C(=O)N1CCC[C@H]1C(=O)N[C@@H](CCC(=O)O)C(=O)N[C@@H](CCCCNC(=O)COCCOCCNC(=O)COCCOCCNC(=O)CC[C@H](NC(=O)CCCCCCCCCCCCCCCCC(=O)O)C(=O)O)C(=O)N1CCC[C@H]1C(=O)N[C@@H](CCC(=O)O)C(=O)N[C@@H](CCC(=O)O)C(=O)N[C@@H](CC(=O)O)C(=O)N[C@@H](C)C(=O)N[C@@H](CCC(N)=O)C(=O)N1CCC[C@H]1C(=O)N[C@@H](CCC(=O)O)C(=O)N[C@@H](CCC(=O)O)C(=O)N[C@@H](CC(C)C)C(=O)N[C@@H](CCC(N)=O)C(=O)N[C@@H](CCC(=O)O)C(=O)N[C@@H](Cc1ccc(O)cc1)C(=O)N[C@@H](Cc1ccc(O)cc1)C(=O)N[C@H](C(=O)N[C@@H](CO)C(=O)N[C@@H](CC(C)C)C(=O)N[C@@H](CCCNC(=N)N)C(=O)N[C@@H](Cc1c[nH]cn1)C(=O)N[C@@H](Cc1ccc(O)cc1)C(=O)N[C@@H](Cc1ccc(O)cc1)C(=O)N[C@@H](CC(N)=O)C(=O)N[C@@H](Cc1c[nH]c2ccccc12)C(=O)N[C@@H](CC(C)C)C(=O)N[C@H](C(=O)N[C@@H](CCCNC(=N)N)C(=O)N[C@@H](CCC(N)=O)C(=O)N[C@@H](CCCNC(=N)N)C(=O)N[C@@H](Cc1ccc(O)cc1)C(N)=O)[C@@H](C)O)C(C)C
Ki: 2.5 nM

B4: Compound 3 (peptide)
peptide: Isovaleryl-APEK([AEEA-AEEA-γGlu-C18 diacid])PEEEASPAELQRYYVSLRHYYNWLTRQRY-NH2
SMILES: CC(C)CC(=O)N[C@@H](C)C(=O)N1CCC[C@H]1C(=O)N[C@@H](CCC(=O)O)C(=O)N[C@@H](CCCCNC(=O)COCCOCCNC(=O)COCCOCCNC(=O)CC[C@H](NC(=O)CCCCCCCCCCCCCCCCC(=O)O)C(=O)O)C(=O)N1CCC[C@H]1C(=O)N[C@@H](CCC(=O)O)C(=O)N[C@@H](CCC(=O)O)C(=O)N[C@@H](CCC(=O)O)C(=O)N[C@@H](C)C(=O)N[C@@H](CO)C(=O)N1CCC[C@H]1C(=O)N[C@@H](C)C(=O)N[C@@H](CCC(=O)O)C(=O)N[C@@H](CC(C)C)C(=O)N[C@@H](CCC(N)=O)C(=O)N[C@@H](CCCNC(=N)N)C(=O)N[C@@H](Cc1ccc(O)cc1)C(=O)N[C@@H](Cc1ccc(O)cc1)C(=O)N[C@H](C(=O)N[C@@H](CO)C(=O)N[C@@H](CC(C)C)C(=O)N[C@@H](CCCNC(=N)N)C(=O)N[C@@H](Cc1c[nH]cn1)C(=O)N[C@@H](Cc1ccc(O)cc1)C(=O)N[C@@H](Cc1ccc(O)cc1)C(=O)N[C@@H](CC(N)=O)C(=O)N[C@@H](Cc1c[nH]c2ccccc12)C(=O)N[C@@H](CC(C)C)C(=O)N[C@H](C(=O)N[C@@H](CCCNC(=N)N)C(=O)N[C@@H](CCC(N)=O)C(=O)N[C@@H](CCCNC(=N)N)C(=O)N[C@@H](Cc1ccc(O)cc1)C(N)=O)[C@@H](C)O)C(C)C
Ki: 3.14 nM

B6: Compound 4 (peptide)
peptide: Isovaleryl-APEK([AEEA-AEEA-γGlu-C18 diacid])PEEDASPEELQRYYVSLRHYYNWLQRQRY-NH2
SMILES: CC(C)CC(=O)N[C@@H](C)C(=O)N1CCC[C@H]1C(=O)N[C@@H](CCC(=O)O)C(=O)N[C@@H](CCCCNC(=O)COCCOCCNC(=O)COCCOCCNC(=O)CC[C@H](NC(=O)CCCCCCCCCCCCCCCCC(=O)O)C(=O)O)C(=O)N1CCC[C@H]1C(=O)N[C@@H](CCC(=O)O)C(=O)N[C@@H](CCC(=O)O)C(=O)N[C@@H](CC(=O)O)C(=O)N[C@@H](C)C(=O)N[C@@H](CO)C(=O)N1CCC[C@H]1C(=O)N[C@@H](CCC(=O)O)C(=O)N[C@@H](CCC(=O)O)C(=O)N[C@@H](CC(C)C)C(=O)N[C@@H](CCC(N)=O)C(=O)N[C@@H](CCCNC(=N)N)C(=O)N[C@@H](Cc1ccc(O)cc1)C(=O)N[C@@H](Cc1ccc(O)cc1)C(=O)N[C@H](C(=O)N[C@@H](CO)C(=O)N[C@@H](CC(C)C)C(=O)N[C@@H](CCCNC(=N)N)C(=O)N[C@@H](Cc1c[nH]cn1)C(=O)N[C@@H](Cc1ccc(O)cc1)C(=O)N[C@@H](Cc1ccc(O)cc1)C(=O)N[C@@H](CC(N)=O)C(=O)N[C@@H](Cc1c[nH]c2ccccc12)C(=O)N[C@@H](CC(C)C)C(=O)N[C@@H](CCC(N)=O)C(=O)N[C@@H](CCCNC(=N)N)C(=O)N[C@@H](CCC(N)=O)C(=O)N[C@@H](CCCNC(=N)N)C(=O)N[C@@H](Cc1ccc(O)cc1)C(N)=O)C(C)C
Ki: 1.43 nM

The next lines start with the values.

Ki: 14.8 nM
B2: Compound 5 (peptide)
peptide: Isovaleryl-APEK([AEEA-AEEA-γGlu-C18 diacid])PEEEVSPEELQRYYVSLRHYYNWLTRQRY-NH2
SMILES: CC(C)CC(=O)N[C@@H](C)C(=O)N1CCC[C@H]1C(=O)N[C@@H](CCC(=O)O)C(=O)N[C@@H](CCCCNC(=O)COCCOCCNC(=O)COCCOCCNC(=O)CC[C@H](NC(=O)CCCCCCCCCCCCCCCCC(=O)O)C(=O)O)C(=O)N1CCC[C@H]1C(=O)N[C@@H](CCC(=O)O)C(=O)N[C@@H](CCC(=O)O)C(=O)N[C@@H](CCC(=O)O)C(=O)N[C@H](C(=O)N[C@@H](CO)C(=O)N1CCC[C@H]1C(=O)N[C@@H](CCC(=O)O)C(=O)N[C@@H](CCC(=O)O)C(=O)N[C@@H](CC(C)C)C(=O)N[C@@H](CCC(N)=O)C(=O)N[C@@H](CCCNC(=N)N)C(=O)N[C@@H](Cc1ccc(O)cc1)C(=O)N[C@@H](Cc1ccc(O)cc1)C(=O)N[C@H](C(=O)N[C@@H](CO)C(=O)N[C@@H](CC(C)C)C(=O)N[C@@H](CCCNC(=N)N)C(=O)N[C@@H](Cc1c[nH]cn1)C(=O)N[C@@H](Cc1ccc(O)cc1)C(=O)N[C@@H](Cc1ccc(O)cc1)C(=O)N[C@@H](CC(N)=O)C(=O)N[C@@H](Cc1c[nH]c2ccccc12)C(=O)N[C@@H](CC(C)C)C(=O)N[C@H](C(=O)N[C@@H](CCCNC(=N)N)C(=O)N[C@@H](CCC(N)=O)C(=O)N[C@@H](CCCNC(=N)N)C(=O)N[C@@H](Cc1ccc(O)cc1)C(N)=O)[C@@H](C)O)C(C)C)C(C)C

Ki: 6.52 nM
B3: Compound 6 (peptide)
peptide: Isovaleryl-APEK([AEEA-AEEA-γGlu-C18 diacid])PEEEASPEELQRYYVSARHYYNWLTRQRY-NH2
SMILES: CC(C)CC(=O)N[C@@H](C)C(=O)N1CCC[C@H]1C(=O)N[C@@H](CCC(=O)O)C(=O)N[C@@H](CCCCNC(=O)COCCOCCNC(=O)COCCOCCNC(=O)CC[C@H](NC(=O)CCCCCCCCCCCCCCCCC(=O)O)C(=O)O)C(=O)N1CCC[C@H]1C(=O)N[C@@H](CCC(=O)O)C(=O)N[C@@H](CCC(=O)O)C(=O)N[C@@H](CCC(=O)O)C(=O)N[C@@H](C)C(=O)N[C@@H](CO)C(=O)N1CCC[C@H]1C(=O)N[C@@H](CCC(=O)O)C(=O)N[C@@H](CCC(=O)O)C(=O)N[C@@H](CC(C)C)C(=O)N[C@@H](CCC(N)=O)C(=O)N[C@@H](CCCNC(=N)N)C(=O)N[C@@H](Cc1ccc(O)cc1)C(=O)N[C@@H](Cc1ccc(O)cc1)C(=O)N[C@H](C(=O)N[C@@H](CO)C(=O)N[C@@H](C)C(=O)N[C@@H](CCCNC(=N)N)C(=O)N[C@@H](Cc1c[nH]cn1)C(=O)N[C@@H](Cc1ccc(O)cc1)C(=O)N[C@@H](Cc1ccc(O)cc1)C(=O)N[C@@H](CC(N)=O)C(=O)N[C@@H](Cc1c[nH]c2ccccc12)C(=O)N[C@@H](CC(C)C)C(=O)N[C@H](C(=O)N[C@@H](CCCNC(=N)N)C(=O)N[C@@H](CCC(N)=O)C(=O)N[C@@H](CCCNC(=N)N)C(=O)N[C@@H](Cc1ccc(O)cc1)C(N)=O)[C@@H](C)O)C(C)C

Ki: 1.02 nM
B5: Compound 7 (peptide)
peptide: Isovaleryl-APEK([AEEA-AEEA-γGlu-C18 diacid])PEEDASPEELQAYYVSLRHYYNWLTRQRY-NH2
SMILES: CC(C)CC(=O)N[C@@H](C)C(=O)N1CCC[C@H]1C(=O)N[C@@H](CCC(=O)O)C(=O)N[C@@H](CCCCNC(=O)COCCOCCNC(=O)COCCOCCNC(=O)CC[C@H](NC(=O)CCCCCCCCCCCCCCCCC(=O)O)C(=O)O)C(=O)N1CCC[C@H]1C(=O)N[C@@H](CCC(=O)O)C(=O)N[C@@H](CCC(=O)O)C(=O)N[C@@H](CC(=O)O)C(=O)N[C@@H](C)C(=O)N[C@@H](CO)C(=O)N1CCC[C@H]1C(=O)N[C@@H](CCC(=O)O)C(=O)N[C@@H](CCC(=O)O)C(=O)N[C@@H](CC(C)C)C(=O)N[C@@H](CCC(N)=O)C(=O)N[C@@H](C)C(=O)N[C@@H](Cc1ccc(O)cc1)C(=O)N[C@@H](Cc1ccc(O)cc1)C(=O)N[C@H](C(=O)N[C@@H](CO)C(=O)N[C@@H](CC(C)C)C(=O)N[C@@H](CCCNC(=N)N)C(=O)N[C@@H](Cc1c[nH]cn1)C(=O)N[C@@H](Cc1ccc(O)cc1)C(=O)N[C@@H](Cc1ccc(O)cc1)C(=O)N[C@@H](CC(N)=O)C(=O)N[C@@H](Cc1c[nH]c2ccccc12)C(=O)N[C@@H](CC(C)C)C(=O)N[C@H](C(=O)N[C@@H](CCCNC(=N)N)C(=O)N[C@@H](CCC(N)=O)C(=O)N[C@@H](CCCNC(=N)N)C(=O)N[C@@H](Cc1ccc(O)cc1)C(N)=O)[C@@H](C)O)C(C)C
